Assay results published in publication PMC3221699.
pKd: −log10 of the molar value. Like-named read-outs stand apart in the source and are kept apart here.

Key:
[1] = target: IL-10R1 (Homo sapiens) (UniProt Q13651); details: cited from earlier work
[2] = target: human IL-10R1 chain coupled to agarose beads (human) (UniProt Q13651)
[3] = target: IL-10R1-FC fusion protein (human IL-10R1 extracellular region fused to mouse IgG2a FC) (human) (UniProt Q13651); experiment: SPR; Biacore T200, 20 °C, HBS (10 mM Hepes pH 7.4, 0.15 M NaCl, 0.1% P20, 0.1 mg/mL BSA); IL-10R1-FC captured (~75 RU) by anti-murine FC antibody on a CM5 chip; RhCMVIL-10 (0-100 nM) or M1/M2 (100, 500, 1000 nM) injected at 75 µL/min; global fit to a bivalent analyte model (Rmax, and tc for M1, fixed for the mutants); KD2 called apparent
[4] = target: Rhesus cytomegalovirus IL-10 (RhCMVIL-10), wild type (rhesus cytomegalovirus (RhCMV) strain 68-1); experiment: SEC; 24 mL Superdex 200 gel filtration column; elution position of affinity purified RhCMVIL-10 compared with cIL-10; fractions analysed by SDS-PAGE
[5] = target: IL-10R1 (Homo sapiens) (UniProt Q13651); details: cited from earlier work; remark: listed apart in the source

cIL-10, sequence (P22301 19-178): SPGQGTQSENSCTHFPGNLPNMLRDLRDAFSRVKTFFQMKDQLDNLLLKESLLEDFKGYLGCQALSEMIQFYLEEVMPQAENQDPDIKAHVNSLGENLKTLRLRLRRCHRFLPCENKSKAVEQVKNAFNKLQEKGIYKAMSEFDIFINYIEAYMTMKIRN

Substance | KD1 (bivalent analyte model, kd1/ka1) [3] [µM] | KD2 (bivalent analyte model, apparent, kd2/ka1) [3] [nM] | ka1 (bivalent analyte model, first step) [3] [M⁻¹ s⁻¹] | ka2 (bivalent analyte model, second step) [3] | kd1 (bivalent analyte model, first step) [3] [s⁻¹] | kd2 (bivalent analyte model, second step) [3] [s⁻¹] | other results
CMVIL-10 (from UniProt P17150) | – | – | – | – | – | – | pKd [1]: 9.00
H6FXa-RhCMVIL-10 Asp-144His (ligand) | – | – | – | – | – | – | proliferation of TF-1/IL-10R1 cells, EC50 relative to RhCMVIL-10 and cIL-10; considerable activity retained at 1,000 ng/ml [2]: 300 fold
H6FXa-RhCMVIL-10 Gln-38Arg (ligand) | – | – | – | – | – | – | proliferation of TF-1/IL-10R1 cells, EC50 relative to RhCMVIL-10 and cIL-10; considerable activity retained at 1,000 ng/ml [2]: 100 fold
RhCMVIL-10 mutant 1 (M1; Gln-38Arg, Asp-144His), RhCMVIL-10-FXaH6 (ligand) | 43 | 410 | 4620 | 0.000232 1/RUs | 0.199 | 0.00187 | Rm-obs (maximum RU observed at the highest concentration, 1000 nM) [3]: 0.8 RU
RhCMVIL-10 mutant 2 (M2; Glu-142Gln, Asp-144His), RhCMVIL-10-FXaH6 (ligand) | 14.7 | 94.4 | 14500 | 0.000548 1/RUs | 0.212 | 0.00136 | Rm-obs (maximum RU observed at the highest concentration, 1000 nM) [3]: 3 RU
Rhesus cytomegalovirus IL-10 (RhCMVIL-10), wild type (ligand) | 0.0651 | 1.3 | 1.18e+06 | 0.00105 1/RUs | 0.0767 | 0.00155 | stoichiometry N [4]: 2; Rm-obs (maximum RU observed at the highest concentration, 100 nM) [3]: 20.9 RU
cIL-10 (from UniProt P22301) | – | – | – | – | – | – | pKd [5]: 9.00
